Measured values taken from the Human Domainome abundance scans (Beltran et al. 2025).

B1: GA-binding protein alpha chain, residues 172 to 250; numbered along this chain, Q06546 (parent)
chain: GYRKEQERLGIPYDPIQWSTDQVLHWVVWVMKEFSMTDIDLTTLNISGRELCSLNQEDFFQRVPRGEILWSHLELLRKY

Variants of: B1
Test: abundance fitness (aPCA) (normalised: wild type 0, dead -1); higher = more abundant; growth selection in yeast, the domain comes from the species named
Details: Homo sapiens

Abundance fitness, by site and new letter:
H25: D -0.209; R -0.304; Q -0.304; N -0.048; W -0.393; I -0.138; P -0.942; V -0.219; A -0.25; T -0.12; C -0.266; S -0.27; G -0.207; F -0.194; L -0.167; M -0.303; Y -0.002
E33: V -0.277; M -0.337; A -0.139; P -0.26; F -0.375; N -0.202; W -0.566; Y -0.257; K -0.008; H -0.092; S -0.1; D 0.021; G -0.196; I -0.767; C -0.276; T -0.084; R -0.031; Q -0.123
V27: M -0.106; K -0.478; E -0.913; F -0.256; Y -0.197; I -0.059; N -0.818; R -0.436; Q -0.271; H -0.758; P -0.668; T -0.245; C -0.073; W -0.732; G -0.037; L -0.194; D -0.75; S -0.171
F34: N 0.081; C -0.068; P -0.605; H 0.077; M -0.175; G -0.117; E -0.056; K 0.015; A -0.031; L -0.145
K32: A -0.141; F -0.41; M -0.261; E -0.024; S -0.079; T -0.01; C -0.188; I -0.582; Q -0.061; L -0.443; V -0.36; P -0.734; R -0.024; W -0.419; Y -0.172; N -0.024
L24: I -0.091; H 0.029; P -1; K -0.038
